Results: the supplement of paper PMC10724198
± gives the standard deviation of the averaged measurements.
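Also: PSI is a weighted mean of sequencing reads over stability bins, variants kept only with over 10 reads, mCherry proximal and sfGFP distal, peptide attached via GGGS linker.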

What follows are sequences tested on Saccharomyces cerevisiae (assay: protein stability index of tFT-peptide fusion (C-terminal peptide) (PSI (0-1 scale)); higher = more stable (slower turnover)). Conditions: genetic background: wild type; temperature: 30 C.
RRVCLIASLWGC was tested, and the protein stability index was 0.625 ± 0.023.
FGVVLEGAGWGG was tested, and the protein stability index was 0.73742 ± 0.00056.
Work on GCCWVVISPAGY yielded a protein stability index of 0.616 ± 0.044.
LSYWPDARRPVL was tested, and the protein stability index was 0.643 ± 0.046.
RAARGGRSGTRV was tested, and the protein stability index was 0.643 ± 0.097.
Sequence SCFGVSRSAHFL has a protein stability index of 0.728 ± 0.027.
In the case of GMCWTEGNTAVL, the protein stability index is reported as 0.697 ± 0.06.
Work on PINALLHNKRES yielded a protein stability index of 0.721 ± 0.082.
Sequence WWGCLGGRAGSR has a protein stability index of 0.695 ± 0.028.
RLREVVHKYNSI gave a protein stability index of 0.757 ± 0.086.
LSGWVLVGNWGN was tested, and the protein stability index was 0.647 ± 0.036.
In the case of VGPGRRGWEGAP, the protein stability index is reported as 0.663 ± 0.022.
For SASPHSPSPPSR, the protein stability index was 0.627 ± 0.079.
PHTGVKRDIENE was tested, and the protein stability index was 0.693 ± 0.092.
With SLWVSLSCFRVV the protein stability index was 0.588 ± 0.028.
With PPRTMTLSAPLT the protein stability index was 0.708 ± 0.02.
Work on LIAACSFPRSSI yielded a protein stability index of 0.716 ± 0.067.
Sequence TPCSRMRPSLLF has a protein stability index of 0.709 ± 0.11.
For LCTCRLSDVRIG, the protein stability index was 0.6748 ± 0.0033.
Work on KEDGEIIDRYVL yielded a protein stability index of 0.616 ± 0.074.
In the case of PCPPHILAPPPS, the protein stability index is reported as 0.713 ± 0.0091.
VASDGGYGYLRF showed a protein stability index of 0.797 ± 0.077.
For WMSGETTHTGRP, the protein stability index was 0.742 ± 0.026.
For IVTQGCLFFLVR, the protein stability index was 0.687 ± 0.038.
PRSRSGVAQGPE gave a protein stability index of 0.6607 ± 0.0039.
In the case of LRQVGTASSLRR, the protein stability index is reported as 0.717 ± 0.045.
With FPPPSPPPLSPC the protein stability index was 0.689 ± 0.024.
LLSPPPAPRPPH showed a protein stability index of 0.696 ± 0.067.
GGGRGDWALRGG gave a protein stability index of 0.751 ± 0.011.
SPPRAGTPTSRP was tested, and the protein stability index was 0.667 ± 0.097.
Work on LGRGGAASGRAL yielded a protein stability index of 0.67 ± 0.062.
In the case of QNERRLPVGSYA, the protein stability index is reported as 0.696 ± 0.06.
Work on GGGRGVAVVWVV yielded a protein stability index of 0.61 ± 0.023.
FSLSVVGLSRWG showed a protein stability index of 0.78 ± 0.1.
Work on EKERKIKEREVT yielded a protein stability index of 0.631 ± 0.018.
Work on KEYKKKKKKIDK yielded a protein stability index of 0.671 ± 0.022.
Sequence HLSLPTRAPIRH has a protein stability index of 0.696 ± 0.019.
Work on PSPSWYGRRLLG yielded a protein stability index of 0.659 ± 0.027.
Sequence KKTRRGSNKKEG has a protein stability index of 0.681 ± 0.025.
LPRTALHSPSPY showed a protein stability index of 0.723 ± 0.082.
For GWRGAAGVPTVD, the protein stability index was 0.73 ± 0.031.
KLKTKQNKERNK showed a protein stability index of 0.757 ± 0.076.
AASSDGWHTGGA gave a protein stability index of 0.694 ± 0.0032.
For VAGTLPFMEFTS, the protein stability index was 0.722 ± 0.023.
Sequence TLGLTLSAFALT has a protein stability index of 0.635 ± 0.043.
SHLMETPACSAP was tested, and the protein stability index was 0.915 ± 0.082.
VLFPLPFPCVSF gave a protein stability index of 0.681 ± 0.06.
SLPLPPCLSPLQ gave a protein stability index of 0.723 ± 0.054.
For EKMILEIKRGRI, the protein stability index was 0.688 ± 0.036.
With GQIVFDNSGSRW the protein stability index was 0.6955 ± 0.0028.
For GFAIWRDGKYRR, the protein stability index was 0.674 ± 0.022.
DGSPLGSIQQAP gave a protein stability index of 0.673 ± 0.013.
With GSSRRWPGGRTI the protein stability index was 0.671 ± 0.073.
With TVATTIRVTKVV the protein stability index was 0.582 ± 0.022.
Sequence RLSFSVPPCLDI has a protein stability index of 0.691 ± 0.032.
Sequence VGGAGDWRWGVW has a protein stability index of 0.805 ± 0.018.
Work on PPSSPPFLPSRP yielded a protein stability index of 0.677 ± 0.031.
NYHAIANRILAK gave a protein stability index of 0.6026 ± 0.004.
In the case of PPSLPLPAPPPP, the protein stability index is reported as 0.66 ± 0.063.
Work on RRADFSWPVVVE yielded a protein stability index of 0.591 ± 0.022.
VDGSYCGTLASY showed a protein stability index of 0.6568 ± 0.0033.
RVLVRLFGRGKA showed a protein stability index of 0.688 ± 0.025.
Sequence TRRGPAGNKPRL has a protein stability index of 0.749 ± 0.0092.
Work on GSGELYMGRLVE yielded a protein stability index of 0.676 ± 0.047.
PGTLLHPLSVGR showed a protein stability index of 0.668 ± 0.019.
Sequence STSRSFFFCSFL has a protein stability index of 0.644 ± 0.072.
With LPFSPLSLLAHP the protein stability index was 0.782 ± 0.044.
Work on RLTLKKMIKQNV yielded a protein stability index of 0.56 ± 0.016.
With YSRPAPSAPPHL the protein stability index was 0.698 ± 0.016.
With LLLTVMSSPSLL the protein stability index was 0.645 ± 0.027.
Sequence SRRSTIRCSTSC has a protein stability index of 0.717 ± 0.036.
With QYGARNHPPTTK the protein stability index was 0.742 ± 0.063.
For RQRSTGGISNRS, the protein stability index was 0.718 ± 0.043.
SVTDCTADHASV gave a protein stability index of 0.653 ± 0.056.
LPAPPTPRPAPP gave a protein stability index of 0.706 ± 0.016.
For PFAPFIHNFGCT, the protein stability index was 0.713 ± 0.023.
NLRQKQKKIKKT was tested, and the protein stability index was 0.642 ± 0.041.
ASPAASSPYGTR was tested, and the protein stability index was 0.733 ± 0.051.
KKKKPKQKQKET gave a protein stability index of 0.686 ± 0.016.
Sequence FMHCLLAQFAGL has a protein stability index of 0.705 ± 0.11.
For SSASDVYQVINS, the protein stability index was 0.676 ± 0.009.
For CYGFCVRTYPAI, the protein stability index was 0.684 ± 0.037.
With SLASWLCVFSWD the protein stability index was 0.673 ± 0.027.
LLSPPFPPPAMV was tested, and the protein stability index was 0.6948 ± 0.0017.
In the case of PPPPSRPPSPGP, the protein stability index is reported as 0.6691 ± 0.00067.
With GLWIRAEISLVS the protein stability index was 0.575 ± 0.016.
Sequence LGFCRLVFGVVG has a protein stability index of 0.522 ± 0.01.
For TLSPPLPPPSPS, the protein stability index was 0.66129 ± 0.00029.
VAPAHPPHHRNL was tested, and the protein stability index was 0.6626 ± 0.0036.
For LSLLKPLALCES, the protein stability index was 0.559 ± 0.032.
Sequence PLGPPPPPPLPS has a protein stability index of 0.7222 ± 0.0058.
With GESSLSTGAQHK the protein stability index was 0.67 ± 0.021.
Sequence SVRAHGDIQIPR has a protein stability index of 0.732 ± 0.073.
LPPLLGPSPCPP gave a protein stability index of 0.604 ± 0.015.
RGGGEGGKEDSQ showed a protein stability index of 0.682 ± 0.047.
Sequence PDPSVERFRGLC has a protein stability index of 0.758 ± 0.095.
LSASHVMSLTNL was tested, and the protein stability index was 0.698 ± 0.028.
Sequence PLTNPPCLTKYP has a protein stability index of 0.793 ± 0.033.
Sequence GFLVALVSRIGW has a protein stability index of 0.565 ± 0.037.
PPPSPSPPPSSP gave a protein stability index of 0.698 ± 0.039.
CGLGGLYLVLHD gave a protein stability index of 0.671 ± 0.067.
